Patent WO2018007922A2 (dated 2018)

Biological target: recombinant human TTR F87M/L110M (human, UniProt P02766 21-147)
Assay: Biacore SPR, mAb captured on anti-human chip, TTR F87M/L110M as analyte

B1: Hu9D5 H4L1 (antibody, V domains shown)
VH: EVQLVESGGGLVQPGGSLRLSCAASGFTFSSYTMSWVRQAPGKGLEWVSEISNSGDTTYYPDTVKGRFTISRDNAKNSLYLQSNLLRAEDTAVYYCARHYYYGGGYGGWFFDVWGQGTTVTVSS
VL: DIVMTQSPLSLPVTPGEPASISCRSSKSLLHSNGNTYLYWFLQKPGQSPQLLIYRVSNLASGVPDRFSGSGSGTDFTLKISRVEAEDVGVYYCMQHLEYPLTFGQGTKLEIK
notes: not tied by words to the tested antibody; also called humanized 9D5 VHv4/VLv1
- Kd: 2.09 nM
